{
  "source": "patent US20230407373A1",
  "about": "(priority 2020, published 2023)",
  "molecules": {"B1": {"name": "UBAP2 (protein, UniProt Q5T6F2 1-1119, looked up)", "Ubiquitin-associated protein 2": "MMTSVSSDHCRGAREKPQISAAQSTQPQKQVVQATAEQMRLAQVIFDKNDSDFEAKVKQLMEVTGKNQDECIVALHDCNGDVNKAINILLEGNSDTTSWETVGCKKKNFAKENSENKENREKKSEKESSRGRGNNNRKGRGGNRGREFRGEENGIDCNQVDKPSDRGKRARGRGFGRGRGRGAGRFSTQGMGTFNPADYSDSTSTDVCGTKLVVWEAAQNGADEGTELASNTHNIAQDLSNKSSYGLKGAWKNSVEEWTTEDWTEDLSETKVFTASSAPAENHILPGQSIDLVALLQKPVPHSQASEANSFETSQQQGFGQALVFTNSQHNNQMAPGTGSSTAVNSCSPQSLSSVLGSGFGELAPPKMANITSSQILDQLKAPSLGQFTTTPSTQQNSTSHPTTTTSWDLKPPTSQSSVLSHLDFKSQPEPSPVLSQLSQRQQHQSQAVTVPPPGLESFPSQAKLRESTPGDSPSTVNKLLQLPSTTIENISVSVHQPQPKHIKLAKRRIPPASKIPASAVEMPGSADVTGLNVQFGALEFGSEPSLSEFGSAPSSENSNQIPISLYSKSLSEPLNTSLSMTSAVQNSTYTTSVITSCSLTSSSLNSASPVAMSSSYDQSSVHNRIPYQSPVSSSESAPGTIMNGHGGGRSQQTLDTPKTTGPPSALPSVSSLPSTTSCTALLPSTSQHTGDLTSSPLSQLSSSLSSHQSSLSAHAALSSSTSHTHASVESASSHQSSATFSTAATSVSSSASSGASLSSSMNTANSLCLGGTPASASSSSSRAAPLVTSGKAPPNLPQGVPPLLHNQYLVGPGGLLPAYPIYGYDELQMLQSRLPVDYYGIPFAAPTALASRDGSLANNPYPGDVTKFGRGDSASPAPATTPAQPQQSQSQTHHTAQQPFVNPALPPGYSYTGLPYYTGMPSAFQYGPTMFVPPASAKQHGVNLSTPTPPFQQASGYGQHGYSTGYDDLTQGTAAGDYSKGGYAGSSQAPNKSAGSGPGKGVSVSSSTTGLPDMTGSVYNKTQTFDKQGFHAGTPPPFSLPSVLGSTGPLASGAAPGYAPPPFLHILPAHQQPHSQLLHHHLPQDAQSGSGQRSQPSSLQPKSQASKPAYGNSPYWTN"}, "B2": {"name": "TFB1M (protein, UniProt Q8WVM0 28-346, looked up)", "Dimethyladenosine transferase …": "QAAKQLSQNFLLDLRLTDKIVRKAGNLTNAYVYEVGPGPGGITRSILNADVAELLVVEKDTRFIPGLQMLSDAAPGKLRIVHGDVLTFKVEKAFSESLKRPWEDDPPNVHIIGNLPFSVSTPLIIKWLENISCRDGPFVYGRTQMTLTFQKEVAERLAANTGSKQRSRLSVMAQYLCNVRHIFTIPGQAFVPKPEVDVGVVHFTPLIQPKIEQPFKLVEKVVQNVFQFRRKYCHRGLRMLFPEAQRLESTGRLLELADIDPTLRPRQLSISHFKSLCDVYRKMCDEDPQLFAYNFREELKRRKSKNEEKEEDDAENYRL"}, "B3": {"name": "GNL3 (protein, UniProt Q9BVP2 1-549, looked up)", "Guanine nucleotide-binding …": "MKRPKLKKASKRMTCHKRYKIQKKVREHHRKLRKEAKKRGHKKPRKDPGVPNSAPFKEALLREAELRKQRLEELKQQQKLDRQKELEKKRKLETNPDIKPSNVEPMEKEFGLCKTENKAKSGKQNSKKLYCQELKKVIEASDVVLEVLDARDPLGCRCPQVEEAIVQSGQKKLVLILNKSDLVPKENLESWLNYLKKELPTVVFRASTKPKDKGKITKRVKAKKNAAPFRSEVCFGKEGLWKLLGGFQETCSKAIRVGVIGFPNVGKSSIINSLKQEQMCNVGVSMGLTRSMQVVPLDKQITIIDSPSFIVSPLNSSSALALRSPASIEVVKPMEAASAILSQADARQVVLKYTVPGYRNSLEFFTVLAQRRGMHQKGGIPNVEGAAKLLWSEWTGASLAYYCHPPTSWTPPPYFNESIVVDMKSGFNLEELEKNNAQSIRAIKGPHLANSILFQSSGLTNGIIEEKDIHEELPKRKERKQEEREDDKDSDQETVDEEVDENSSGMFAAEETGEALSEETTAGEQSTRSFILDKIIEEDDAYDFSTDYV"}},
  "data": [
    {"test_system": "HCoV-OC43 gRNA and sgRNA", "assay_type": "binding", "conditions": "36 hpi; type n_36_v; tested against no-probe control; FDR<10%", "values": [
      {"molecule": "B1", "target (unweighted spectral count, OC43 Probe II capture)": 4},
      {"molecule": "B2", "target (unweighted spectral count, OC43 Probe II capture)": 4},
      {"molecule": "B3", "target (unweighted spectral count, OC43 Probe II capture)": 4}
    ]}
  ]
}
